Test results from patent publication CN115028723A (dated 2022).

Biological target: T1, 重组人IL-1β (novoprotein, CG93) (human, UniProt P01584 117-269)
T1 construct: The supplier is stated for the immunogen; also called rHuman IL-1β; hIL-1β
Assay: Biacore SPR, antibody captured on Protein A chip, IL-1β as analyte, 1:1 Langmuir fit

- Kd: 0.0153 nM
- koff: 6.01e-05 s⁻¹
- kon: 3.93e+06 M⁻¹ s⁻¹
B1: 阳性对照抗体CAN (卡纳单抗, Canakinumab) (antibody, human IgG1, kappa, V domains shown)
VH: QVQLVESGGGVVQPGRSLRLSCAASGFTFSVYGMNWVRQAPGKGLEWVAIIWYDGDNQYYADSVKGRFTISRDNSKNTLYLQMNGLRAEDTAVYYCARDLRTGPFDYWGQGTLVTVSS
VL: EIVLTQSPDFQSVTPKEKVTITCRASQSIGSSLHWYQQKPDQSPKLLIKYASQSFSGVPSRFSGSGSGTDFTLTINSLEAEDAAAYYCHQSSSLPFTFGPGTKVDIKR
notes: Signal peptide added for expression is left out; also called Ilaris
